Experimental data published in patent US20190085055A1.
“And” between values parts separate entries of the source, which are not always exact repeats. Identical values can stand only once.

Legend:
[1] = biological target: D3H44 light chain F116A_L135A; assay: LCCA (SPR), competitor L1 L135W
[2] = biological target: D3H44 light chain F116A_L135V; assay: LCCA (SPR), competitor L1 L135W
[3] = biological target: D3H44 light chain F116A_L135A; assay: LCCA (SPR), competitor L1 L135W_N137A
[4] = biological target: D3H44 light chain L135W_N137A; assay: LCCA (SPR), competitor L2 F116A_L135A
[5] = biological target: D3H44 light chain L135W; assay: LCCA (SPR), competitor L2 F116A_L135A
[6] = biological target: D3H44 light chain L135W; assay: LCCA (SPR), competitor L2 F116A_L135V
[7] = biological target: D3H44 light chain F116A; assay: LCCA (SPR), competitor L1 WT
[8] = biological target: D3H44 light chain F118W_V133S; assay: LCCA (SPR), competitor L1 F116S
[9] = biological target: D3H44 light chain, wild type; assay: LCCA (SPR), competitor L2 F116A
[10] = biological target: D3H44 light chain F116S; assay: LCCA (SPR), competitor L2 F118W_V133S
[11] = biological target: D3H44 light chain S176L; assay: LCCA (SPR), competitor L2 WT
[12] = biological target: D3H44 light chain, wild type; assay: LCCA (SPR), competitor L1 S176L
[13] = biological target: D3H44 light chain S176L; assay: LCCA (SPR), competitor L1 V133S
[14] = biological target: D3H44 light chain V133S; assay: LCCA (SPR), competitor L2 S176L
[15] = biological target: D3H44 light chain S176L; assay: LCCA: H2 co-expressed with L1 and L2, SPR read-out of light chain tags; competing chain L1
[16] = biological target: D3H44 light chain V133S; assay: LCCA: H2 co-expressed with L1 and L2, SPR read-out of light chain tags; competing chain L2
[17] = biological target: D3H44 light chain Q38E; assay: LCCA (SPR), competitor L1 Q38M
[18] = biological target: D3H44 light chain Q38M; assay: LCCA (SPR), competitor L2 Q38E
[19] = biological target: D3H44 light chain Q38E; assay: LCCA (SPR), competitor L1 Q38M; first of two ratios in the cell
[20] = biological target: D3H44 light chain Q38M; assay: LCCA (SPR), competitor L2 Q38E; first of two ratios in the cell
[21] = biological target: D3H44 light chain Q38E; assay: LCCA (SPR), competitor L1 Q38M; second of two ratios in the cell
[22] = biological target: D3H44 light chain Q38M; assay: LCCA (SPR), competitor L2 Q38E; second of two ratios in the cell
[23] = biological target: D3H44 light chain S176V_T178L; assay: LCCA (SPR), competitor L1 WT
[24] = biological target: D3H44 light chain, wild type; assay: LCCA (SPR), competitor L2 S176V_T178L
[25] = biological target: D3H44 light chain S176L; assay: LCCA: H1 co-expressed with L1 and L2, SPR read-out of light chain tags; competing chain L1
[26] = biological target: D3H44 light chain V133S; assay: LCCA: H1 co-expressed with L1 and L2, SPR read-out of light chain tags; competing chain L2
[27] = biological target: D3H44 light chain L89R_F98T; assay: LCCA (SPR), competitor L2 WT
[28] = biological target: D3H44 light chain, wild type; assay: LCCA (SPR), competitor L1 L89R_F98T
[29] = biological target: D3H44 light chain L89R_F98W; assay: LCCA (SPR), competitor L2 WT
[30] = biological target: D3H44 light chain L89R_F98W; assay: LCCA (SPR), competitor L2 F98Y
[31] = biological target: D3H44 light chain F98Y; assay: LCCA (SPR), competitor L1 L89R_F98W
[32] = biological target: D3H44 light chain, wild type; assay: LCCA (SPR), competitor L1 L89R_F98W
[33] = biological target: D3H44 light chain, wild type; assay: LCCA: H1 co-expressed with L1 and L2, SPR read-out of light chain tags; competing chain L1
[34] = biological target: D3H44 light chain L89R_F98W; assay: LCCA: H1 co-expressed with L1 and L2, SPR read-out of light chain tags; competing chain L2
[35] = biological target: D3H44 light chain F98A; assay: LCCA (SPR), competitor L2 WT
[36] = biological target: D3H44 light chain F98L; assay: LCCA (SPR), competitor L1 WT
[37] = biological target: D3H44 light chain F98W; assay: LCCA (SPR), competitor L1 F98A
[38] = biological target: D3H44 light chain, wild type; assay: LCCA (SPR), competitor L1 F98A
[39] = biological target: D3H44 light chain F98W; assay: LCCA (SPR), competitor L1 F98L
[40] = biological target: D3H44 light chain F98A; assay: LCCA (SPR), competitor L2 F98W
[41] = biological target: D3H44 light chain F98L; assay: LCCA (SPR), competitor L2 F98W
[42] = biological target: D3H44 light chain, wild type; assay: LCCA (SPR), competitor L2 F98L
[43] = biological target: D3H44 light chain F98A; assay: LCCA (SPR), competitor L1 P44W
[44] = biological target: D3H44 light chain F98A; assay: LCCA (SPR), competitor L1 Q38E
[45] = biological target: D3H44 light chain F98A; assay: LCCA (SPR), competitor L1 Q38R
[46] = biological target: D3H44 light chain P44W; assay: LCCA (SPR), competitor L2 F98A
[47] = biological target: D3H44 light chain Q38E; assay: LCCA (SPR), competitor L2 F98A
[48] = biological target: D3H44 light chain Q38R; assay: LCCA (SPR), competitor L2 F98A
[49] = biological target: D3H44 light chain F98A; assay: LCCA (SPR), competitor L1 WT
[50] = biological target: D3H44 light chain F98A; assay: LCCA (SPR), competitor L1 F98W
[51] = biological target: D3H44 light chain F98W; assay: LCCA (SPR), competitor L2 F98A
[52] = biological target: tissue factor extracellular domains (human) (UniProt P13726); assay: SPR, median of repeats
[53] = biological target: tissue factor extracellular domains (human) (UniProt P13726); assay: SPR, TF immobilised, purified Fab as analyte, 1:1 model

D3H44 heavy chain (Fab format) A139G_V190A
H1 L2 of H1 L1:H1 L2 (screen) [1]: 10.1 | H1 L2 of H1 L1:H1 L2 (verification) [1]: 10.6 | H1 L2 of H1 L1:H1 L2 (screen) [2]: 13.8 | H1 L2 of H1 L1:H1 L2 (verification) [2]: 48.3 | H1 L2 of H1 L1:H1 L2 (screen) [3]: 5.16 | H1 L1 of H1 L1:H1 L2 (screen) [4]: 70.5 | H1 L1 of H1 L1:H1 L2 (screen) [5]: 65 | H1 L1 of H1 L1:H1 L2 (verification) [5]: 69.5 | H1 L1 of H1 L1:H1 L2 (screen) [6]: 68.4 | H1 L1 of H1 L1:H1 L2 (verification) [6]: 49

D3H44 heavy chain (Fab format) A139W
H1 L2 of H1 L1:H1 L2 (screen) [7]: 30.5 | H2 L2 of H2 L2:H2 L1 (screen) [8]: 76.5 | H2 L2 of H2 L2:H2 L1 (verification) [8]: 38.1 and 40.9 | H2 L2 of H2 L2:H2 L1 (screen) [1]: 77.4 | H2 L2 of H2 L2:H2 L1 (verification) [1]: 78.7 | H2 L2 of H2 L2:H2 L1 (screen) [2]: 62.7 | H2 L2 of H2 L2:H2 L1 (verification) [2]: 76.7 | H1 L1 of H1 L1:H1 L2 (screen) [9]: 58.7 | H2 L2 of H2 L2:H2 L1 (screen) [3]: 73.6 | H2 L1 of H2 L2:H2 L1 (screen) [4]: 19.8 | H2 L1 of H2 L2:H2 L1 (screen) [5]: 17.4 | H2 L1 of H2 L2:H2 L1 (verification) [5]: 10.2 | H2 L1 of H2 L2:H2 L1 (screen) [6]: 34.6 | H2 L1 of H2 L2:H2 L1 (verification) [6]: 19.1 | H2 L1 of H2 L2:H2 L1 (screen) [10]: 4.6 | H2 L1 of H2 L2:H2 L1 (verification) [10]: 40.9 and 38.1

D3H44 heavy chain (Fab format) F174V_P175S_S188G
H1 L1 of H1 L1:H1 L2 (screen) [11]: 53.4 | H1 L2 of H1 L1:H1 L2 (screen) [12]: 9.68 | H2 L2 of H2 L2:H2 L1 (screen) [13]: 81.1 | H2 L2 of H2 L2:H2 L1 (verification) [13]: 68.1 | H2 L1 of H2 L2:H2 L1 (screen) [14]: 1.44 | H2 L1 of H2 L2:H2 L1 (verification) [14]: 2.9 | H2 Readout (H2-L2) [15]: 98 | H2 Readout (H2-L1) [16]: 1

D3H44 heavy chain (Fab format) Q39M
H1 L2 of H1 L1:H1 L2 (screen) [17]: 33.3 | H1 L1 of H1 L1:H1 L2 (screen) [18]: 69.6 | H1 L2 of H1 L1:H1 L2 (verification) [19]: 31.3 | H1 L1 of H1 L1:H1 L2 (verification) [20]: 60.2 | H1 L2 of H1 L1:H1 L2 (verification) [21]: 40.6 | H1 L1 of H1 L1:H1 L2 (verification) [22]: 58.8

D3H44 heavy chain (Fab format) S188I
H1 L2 of H1 L1:H1 L2 (screen) [23]: 41.9 | H1 L1 of H1 L1:H1 L2 (screen) [24]: 61.9

D3H44 heavy chain (Fab format) S188L_V190Y
H1 L2 of H1 L1:H1 L2 (screen) [13]: 7.72 | H1 L2 of H1 L1:H1 L2 (verification) [13]: 12.4 | H1 L1 of H1 L1:H1 L2 (screen) [14]: 90 | H1 L1 of H1 L1:H1 L2 (verification) [14]: 81.2 | H1 Readout (H1-L2) [25]: 24 | H1 Readout (H1-L1) [26]: 83

D3H44 heavy chain (Fab format) V37E
H1 L1 of H1 L1:H1 L2 (screen) [27]: 54.1 | H1 L1 of H1 L1:H1 L2 (verification) [27]: 90.9 | H1 L2 of H1 L1:H1 L2 (screen) [28]: 25 | H1 L2 of H1 L1:H1 L2 (verification) [28]: 16.5

D3H44 heavy chain (Fab format) V37E_F100D
H1 L1 of H1 L1:H1 L2 (screen) [29]: 98.7 | H1 L1 of H1 L1:H1 L2 (verification) [29]: 119 | H1 L1 of H1 L1:H1 L2 (screen) [30]: 67.8 | H1 L1 of H1 L1:H1 L2 (verification) [30]: 76.3 | H1 L2 of H1 L1:H1 L2 (screen) [31]: 24.4 | H1 L2 of H1 L1:H1 L2 (verification) [31]: 18.1 | H1 L2 of H1 L1:H1 L2 (screen) [32]: 4.2 | H1 L2 of H1 L1:H1 L2 (verification) [32]: 4.5 | H1 Readout (H1-L2) [33]: 10 | H1 Readout (H1-L1) [34]: 99

D3H44 heavy chain (Fab format) V37I
H2 L1 of H2 L2:H2 L1 (screen) [35]: 28.7 | H1 L2 of H1 L1:H1 L2 (screen) [36]: 7.34 | H2 L2 of H2 L2:H2 L1 (screen) [37]: 66.5 | H2 L2 of H2 L2:H2 L1 (screen) [38]: 72.6 | H2 L2 of H2 L2:H2 L1 (screen) [39]: 65.7 | H2 L1 of H2 L2:H2 L1 (screen) [40]: 30.9 | H2 L1 of H2 L2:H2 L1 (screen) [41]: 21.7 | H1 L1 of H1 L1:H1 L2 (screen) [42]: 78.5

D3H44 heavy chain (Fab format) V37W
H1 L1 of H1 L1:H1 L2 (screen) [35]: 64.1 | H1 L2 of H1 L1:H1 L2 (screen) [37]: 23.5 | H1 L2 of H1 L1:H1 L2 (verification) [37]: 23.4 | H1 L2 of H1 L1:H1 L2 (screen) [38]: 28.8 | H2 L2 of H2 L2:H2 L1 (screen) [43]: 83.1 | H2 L2 of H2 L2:H2 L1 (screen) [44]: 65.9 | H2 L2 of H2 L2:H2 L1 (verification) [44]: 70.5 | H2 L2 of H2 L2:H2 L1 (screen) [45]: 48.9 | H2 L2 of H2 L2:H2 L1 (verification) [45]: 47.8 | H2 L1 of H2 L2:H2 L1 (screen) [46]: 9.41 | H2 L1 of H2 L2:H2 L1 (screen) [47]: 8.05 | H2 L1 of H2 L2:H2 L1 (verification) [47]: 10.3 | H2 L1 of H2 L2:H2 L1 (screen) [48]: 26.8 | H2 L1 of H2 L2:H2 L1 (verification) [48]: 26.7 | H1 L1 of H1 L1:H1 L2 (screen) [40]: 62.4 | H1 L1 of H1 L1:H1 L2 (verification) [40]: 61.5

D3H44 heavy chain (Fab format), wild type
H1 L2 of H1 L1:H1 L2 (screen) [7]: 26.3 | H1 L2 of H1 L1:H1 L2 (screen) [49]: 7.5 | H1 L2 of H1 L1:H1 L2 (screen) [36]: 13.3 | H2 L2 of H2 L2:H2 L1 (screen) [23]: 99.4 | H2 L2 of H2 L2:H2 L1 (screen) [39]: 74.2 | H2 L2 of H2 L2:H2 L1 (verification) [39]: 50.8 | H1 L2 of H1 L1:H1 L2 (screen) [50]: 28.7 | H1 L2 of H1 L1:H1 L2 (verification) [50]: 28.7 | H1 L1 of H1 L1:H1 L2 (screen) [51]: 67.1 | H1 L1 of H1 L1:H1 L2 (verification) [51]: 67.1 | H2 L1 of H2 L2:H2 L1 (screen) [41]: 27.8 | H2 L1 of H2 L2:H2 L1 (verification) [41]: 23.6

Wild-type anti-TF D3H44 Fab
Kd [52]: 0.06 nM | Kd [53]: 0.052 nM
